Here are results for two molecules from paper PMC12775136, “Mechanistic insights into recruitment and regulation of the RNA helicase UPF1 in replication-dependent histone mRNA decay” (Nature Communications, 2025).

In test [1] the target is T1, 3′hExo as used in surface plasmon resonance (human, UniProt Q8IV48 1-349).
T1 construct: human 3′hExo (ERI1); Likely 3′hExofl
T1 sequence (looked up): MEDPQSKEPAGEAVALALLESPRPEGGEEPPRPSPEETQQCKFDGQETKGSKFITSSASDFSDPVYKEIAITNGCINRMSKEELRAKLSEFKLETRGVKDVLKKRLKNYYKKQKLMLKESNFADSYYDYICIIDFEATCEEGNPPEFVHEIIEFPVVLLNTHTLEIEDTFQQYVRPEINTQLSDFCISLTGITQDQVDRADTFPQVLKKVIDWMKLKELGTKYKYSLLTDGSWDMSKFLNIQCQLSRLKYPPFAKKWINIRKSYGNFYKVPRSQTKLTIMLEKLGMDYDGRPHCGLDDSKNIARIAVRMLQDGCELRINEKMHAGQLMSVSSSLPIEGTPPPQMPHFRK
The experiment in a line: SPR; format not told in the text shown. The following applies: both partners purified. On the technique in general: In SPR one partner is held on a chip, and binding of the other changes the refractive index at the surface.

The target of test [2] is T2, 3′hExofl (human, UniProt Q8IV48 1-349).
T2 construct: human 3′hExo (ERI1), full length; Modified pET28a, N-terminal 6x His-tag followed by an HRV-3C site; also called ERI1; full-length 3′hExo; source: E. coli BL21 Star (DE3) pRARE, purified (Ni-NTA, heparin, SEC)
T2 sequence (looked up): T1 sequence (looked up)
The experiment in a line: NMR titration; 1H-15N HSQC of 15N-labelled UPF2-AL or UPF2-ALm with stepwise addition of unlabelled 3′hExo proteins; 298 K; 20 mM HEPES pH 7.0, 100 mM NaCl, 2 mM DTT; KD from twelve amide peaks, one-to-one binding isotherm. Conditions: both partners purified.

B1: UPF2 as used in surface plasmon resonance (domain or fragment)
chain: KKKTEGENLEEDEEEEEGGAETEEQSGNESEVNEPEEEEGSDNDDDEGEEEEEENTDYLTDSNKE
modifications: not fully specified; numbers in words are those of the source; also: modified acidic linker UPF2-ALm, further changes not given here
For the molecule B1, in test [1], the Kd (as a rule, a measure of binding affinity in units of concentration) was roughly 170 µM.

B2: UPF2-ALm (residues 1024–1085) (domain or fragment, human, UniProt Q9HAU5 1024-1085, looked up)
chain: TEGENLEEDEEEEEGGAETEEQSGNESEVNEPEEEEGSDNDDDEGEEEEEENTDYLTDSNKE
notes: human UPF2, residues 1024–1085 of the acidic linker; source: E. coli, purified; 15N-labelled
In turn, B2 yielded a Kd in test [2] of roughly 200 µM.
